Test results as given in paper PMC6613369.

Substrate: CO[C@@H]1O[C@H](CO)[C@H](O)[C@@H](O)[C@H]1O
Assay: purified protein
Format: biochemical, Escherichia coli
Conditions: oxidation, 2.0 mM NAD+, 50 mM HEPES/K+, pH 8.0, 30 °C

B1: YcjQ (Escherichia coli K-12) (protein)
chain: MKKLVATAPRVAALVEYEDRAILANEVKIRVRFGAPKHGTEVVDFRAASPFIDEDFNGEWQMFTPRPADAPRGIEFGKFQLGNMVVGDIIECGSDVTDYAVGDSVCGYGPLSETVIINAVNNYKLRKMPQGSSWKNAVCYDPAQFAMSGVRDANVRVGDFVVVVGLGAIGQIAIQLAKRAGASVVIGVDPIAHRCDIARRHGADFCLNPIGTDVGKEIKTLTGKQGADVIIETSGYADALQSALRGLAYGGTISYVAFAKPFAEGFNLGREAHFNNAKIVFSRACSEPNPDYPRWSRKRIEETCWELLMNGYLNCEDLIDPVVTFANSPESYMQYVDQHPEQSIKMGVTF
- Km: 12.5 ± 1.5 mM
- kcat: 0.35 ± 0.03 s⁻¹
- kcat/Km: 28 ± 3 M⁻¹ s⁻¹
